Values of other authors, collected in article PMC4004251.

Tests used:
Conditions in all cases: folded GB1 (the article states the structure is stable above pH 3)
Glu15 = Glu15 (UniProt position 241, KTLKGETTTEA)
Glu42 = Glu42 (UniProt position 268, NGVDGEWTYDD)
Glu27 = Glu27 (UniProt position 253, DAATAEKVFKQ)

Immunoglobulin G-binding protein G, B1 domain (GB1) (Streptococcus sp. group G)
pKa (Glu15): near 4.5
pKa (Glu42): about 4.5
pKa (Glu27): about 4.5
